# According to publication PMC3334620:
# How the values were obtained:
# Details in all cases: 200 nM
# [1] = biological target: T1, Stb5 (Saccharomyces cerevisiae) (UniProt P38699)
# T1 sequence: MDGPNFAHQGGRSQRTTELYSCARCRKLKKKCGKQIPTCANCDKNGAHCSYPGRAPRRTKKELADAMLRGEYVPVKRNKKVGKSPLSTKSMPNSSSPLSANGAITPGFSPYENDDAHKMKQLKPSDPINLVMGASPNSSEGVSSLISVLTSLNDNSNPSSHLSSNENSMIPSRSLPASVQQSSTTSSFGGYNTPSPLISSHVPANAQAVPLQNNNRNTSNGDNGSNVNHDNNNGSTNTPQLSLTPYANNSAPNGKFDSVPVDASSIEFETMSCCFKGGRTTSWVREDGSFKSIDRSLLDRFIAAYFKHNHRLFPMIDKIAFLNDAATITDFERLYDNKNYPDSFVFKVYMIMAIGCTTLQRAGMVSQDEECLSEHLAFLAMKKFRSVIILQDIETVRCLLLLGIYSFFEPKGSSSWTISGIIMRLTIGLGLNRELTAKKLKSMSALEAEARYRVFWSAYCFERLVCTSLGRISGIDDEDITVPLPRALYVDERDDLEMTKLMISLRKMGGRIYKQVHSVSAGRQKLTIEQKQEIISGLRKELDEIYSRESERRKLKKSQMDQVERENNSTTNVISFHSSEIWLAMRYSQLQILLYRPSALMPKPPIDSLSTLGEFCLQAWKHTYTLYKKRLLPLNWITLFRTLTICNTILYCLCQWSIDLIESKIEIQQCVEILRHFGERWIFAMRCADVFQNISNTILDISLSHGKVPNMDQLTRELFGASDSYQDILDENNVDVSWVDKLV
# [2] = biological target: T2, Pdr3 (Saccharomyces cerevisiae) (UniProt P33200)
# T2 sequence: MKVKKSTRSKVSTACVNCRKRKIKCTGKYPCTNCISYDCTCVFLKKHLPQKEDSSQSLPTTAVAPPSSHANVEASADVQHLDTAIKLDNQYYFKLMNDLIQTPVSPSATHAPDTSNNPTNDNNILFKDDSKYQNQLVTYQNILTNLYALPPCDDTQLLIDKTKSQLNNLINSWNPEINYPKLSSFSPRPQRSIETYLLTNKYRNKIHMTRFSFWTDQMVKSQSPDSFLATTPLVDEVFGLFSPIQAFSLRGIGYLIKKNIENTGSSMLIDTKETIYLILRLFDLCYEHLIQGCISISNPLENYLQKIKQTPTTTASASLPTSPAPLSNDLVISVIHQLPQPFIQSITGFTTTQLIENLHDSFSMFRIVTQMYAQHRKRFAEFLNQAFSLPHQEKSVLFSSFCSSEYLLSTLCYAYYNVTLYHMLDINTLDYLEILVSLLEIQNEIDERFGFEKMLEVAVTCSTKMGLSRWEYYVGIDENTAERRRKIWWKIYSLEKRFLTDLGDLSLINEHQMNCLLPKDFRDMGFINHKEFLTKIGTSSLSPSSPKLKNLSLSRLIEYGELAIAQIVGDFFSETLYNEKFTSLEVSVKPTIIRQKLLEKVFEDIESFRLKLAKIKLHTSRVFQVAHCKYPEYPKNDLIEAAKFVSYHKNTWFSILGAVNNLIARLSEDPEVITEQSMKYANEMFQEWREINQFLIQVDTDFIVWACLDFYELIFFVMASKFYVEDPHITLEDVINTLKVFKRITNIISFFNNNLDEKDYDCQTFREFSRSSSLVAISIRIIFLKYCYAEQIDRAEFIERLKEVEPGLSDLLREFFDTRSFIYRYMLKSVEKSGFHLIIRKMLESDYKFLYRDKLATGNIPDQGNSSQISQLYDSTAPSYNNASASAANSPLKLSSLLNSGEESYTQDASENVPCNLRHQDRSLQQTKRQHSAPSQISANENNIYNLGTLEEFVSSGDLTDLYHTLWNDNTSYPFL
# [3] = biological target: T3, Sko1 (Saccharomyces cerevisiae) (UniProt Q02100)
# T3 sequence: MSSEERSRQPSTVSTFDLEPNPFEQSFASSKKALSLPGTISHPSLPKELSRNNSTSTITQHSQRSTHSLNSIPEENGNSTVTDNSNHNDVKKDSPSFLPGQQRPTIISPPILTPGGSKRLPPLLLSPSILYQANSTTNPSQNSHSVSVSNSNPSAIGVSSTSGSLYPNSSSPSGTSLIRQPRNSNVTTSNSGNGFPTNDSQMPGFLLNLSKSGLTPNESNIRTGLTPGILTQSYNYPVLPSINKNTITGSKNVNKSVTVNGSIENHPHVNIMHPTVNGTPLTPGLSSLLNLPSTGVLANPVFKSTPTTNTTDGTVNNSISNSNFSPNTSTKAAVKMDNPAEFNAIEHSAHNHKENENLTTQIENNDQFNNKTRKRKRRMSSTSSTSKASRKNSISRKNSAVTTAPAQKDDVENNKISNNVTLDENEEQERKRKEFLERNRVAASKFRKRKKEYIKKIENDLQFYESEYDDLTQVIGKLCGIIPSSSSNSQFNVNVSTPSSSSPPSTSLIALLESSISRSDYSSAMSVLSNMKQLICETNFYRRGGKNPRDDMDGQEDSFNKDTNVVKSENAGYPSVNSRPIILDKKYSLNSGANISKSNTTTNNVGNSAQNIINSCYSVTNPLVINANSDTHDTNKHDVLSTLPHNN
# [4] = biological target: T4, Stp1 (Saccharomyces cerevisiae) (UniProt Q00947)
# T4 sequence: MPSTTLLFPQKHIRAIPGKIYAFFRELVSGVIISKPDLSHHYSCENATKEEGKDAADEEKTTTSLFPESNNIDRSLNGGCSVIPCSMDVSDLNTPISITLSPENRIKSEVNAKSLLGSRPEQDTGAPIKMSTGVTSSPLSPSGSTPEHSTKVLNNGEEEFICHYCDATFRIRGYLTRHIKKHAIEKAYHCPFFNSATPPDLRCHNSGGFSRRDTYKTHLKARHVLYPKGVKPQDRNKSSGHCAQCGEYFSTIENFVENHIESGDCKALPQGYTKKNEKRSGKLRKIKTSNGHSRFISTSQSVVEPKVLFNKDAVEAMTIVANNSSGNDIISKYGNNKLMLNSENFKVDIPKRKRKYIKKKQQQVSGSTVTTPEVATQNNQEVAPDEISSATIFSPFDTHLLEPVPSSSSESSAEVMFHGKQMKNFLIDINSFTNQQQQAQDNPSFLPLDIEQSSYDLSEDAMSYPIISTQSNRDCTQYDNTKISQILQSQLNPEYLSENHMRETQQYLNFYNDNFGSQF
# [5] = biological target: T5, Msn1 (Saccharomyces cerevisiae) (UniProt P22148)
# T5 sequence: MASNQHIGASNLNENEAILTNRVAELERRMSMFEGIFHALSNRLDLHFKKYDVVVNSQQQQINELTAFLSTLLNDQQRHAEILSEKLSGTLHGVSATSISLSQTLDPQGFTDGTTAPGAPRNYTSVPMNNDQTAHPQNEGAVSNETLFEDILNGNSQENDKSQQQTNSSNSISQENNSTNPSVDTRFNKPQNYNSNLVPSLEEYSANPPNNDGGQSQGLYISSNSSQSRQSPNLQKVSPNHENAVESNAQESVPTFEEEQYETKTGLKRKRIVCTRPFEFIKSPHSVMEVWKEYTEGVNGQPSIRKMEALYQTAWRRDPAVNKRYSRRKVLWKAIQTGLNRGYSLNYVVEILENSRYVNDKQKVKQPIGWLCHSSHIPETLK
sequence,measurement,setting,value
AAACACCG (double strand) [8-mer AAACACCG],binding signal (PBM E-score (-0.5 to 0.5)),[1],0.491
AACACCGC (double strand) [8-mer AACACCGC],binding signal (PBM E-score (-0.5 to 0.5)),[1],0.48
AACCCCGC (double strand) [8-mer AACCCCGC],binding signal (PBM E-score (-0.5 to 0.5)),[1],0.484
AACGGAAC (double strand) [8-mer AACGGAAC],binding signal (PBM E-score (-0.5 to 0.5)),[2],0.49
AATGACGT (double strand) [8-mer AATGACGT],binding signal (PBM E-score (-0.5 to 0.5)),[3],0.498
ACACGGCA (double strand) [8-mer ACACGGCA],binding signal (PBM E-score (-0.5 to 0.5)),[4],0.49
ACCCGCGG (double strand) [8-mer ACCCGCGG],binding signal (PBM E-score (-0.5 to 0.5)),[2],0.497
ACGGCACT (double strand) [8-mer ACGGCACT],binding signal (PBM E-score (-0.5 to 0.5)),[4],0.489
ACGGCGCC (double strand) [8-mer ACGGCGCC],binding signal (PBM E-score (-0.5 to 0.5)),[4],0.49
ACGGCGCG (double strand) [8-mer ACGGCGCG],binding signal (PBM E-score (-0.5 to 0.5)),[4],0.492
ACGTCATA (double strand) [8-mer ACGTCATA],binding signal (PBM E-score (-0.5 to 0.5)),[3],0.498
ACGTCATC (double strand) [8-mer ACGTCATC],binding signal (PBM E-score (-0.5 to 0.5)),[3],0.498
ACGTCATG (double strand) [8-mer ACGTCATG],binding signal (PBM E-score (-0.5 to 0.5)),[3],0.497
ATACGGCG (double strand) [8-mer ATACGGCG],binding signal (PBM E-score (-0.5 to 0.5)),[4],0.49
ATACGTCA (double strand) [8-mer ATACGTCA],binding signal (PBM E-score (-0.5 to 0.5)),[3],0.494
ATCCGCGG (double strand) [8-mer ATCCGCGG],binding signal (PBM E-score (-0.5 to 0.5)),[2],0.496
ATGACGTA (double strand) [8-mer ATGACGTA],binding signal (PBM E-score (-0.5 to 0.5)),[3],0.5
ATGACGTC (double strand) [8-mer ATGACGTC],binding signal (PBM E-score (-0.5 to 0.5)),[3],0.497
ATGACGTG (double strand) [8-mer ATGACGTG],binding signal (PBM E-score (-0.5 to 0.5)),[3],0.496
ATGTCCTA (double strand) [8-mer ATGTCCTA],binding signal (PBM E-score (-0.5 to 0.5)),[5],0.497
ATTTGTCC (double strand) [8-mer ATTTGTCC],binding signal (PBM E-score (-0.5 to 0.5)),[5],0.498
CACGGCAC (double strand) [8-mer CACGGCAC],binding signal (PBM E-score (-0.5 to 0.5)),[4],0.491
CCCCGCGG (double strand) [8-mer CCCCGCGG],binding signal (PBM E-score (-0.5 to 0.5)),[2],0.492
CCCGCGGA (double strand) [8-mer CCCGCGGA],binding signal (PBM E-score (-0.5 to 0.5)),[2],0.498
CCCGCGGG (double strand) [8-mer CCCGCGGG],binding signal (PBM E-score (-0.5 to 0.5)),[2],0.498
CCGCGGAA (double strand) [8-mer CCGCGGAA],binding signal (PBM E-score (-0.5 to 0.5)),[2],0.499
CCGCGGAC (double strand) [8-mer CCGCGGAC],binding signal (PBM E-score (-0.5 to 0.5)),[2],0.495
CCGCGGAG (double strand) [8-mer CCGCGGAG],binding signal (PBM E-score (-0.5 to 0.5)),[2],0.498
CCGCGGCA (double strand) [8-mer CCGCGGCA],binding signal (PBM E-score (-0.5 to 0.5)),[2],0.49
CCGCGGGA (double strand) [8-mer CCGCGGGA],binding signal (PBM E-score (-0.5 to 0.5)),[2],0.499
CGCGGAAC (double strand) [8-mer CGCGGAAC],binding signal (PBM E-score (-0.5 to 0.5)),[2],0.491
CGGACTTA (double strand) [8-mer CGGACTTA],binding signal (PBM E-score (-0.5 to 0.5)),[1],0.483
CGGAGATA (double strand) [8-mer CGGAGATA],binding signal (PBM E-score (-0.5 to 0.5)),[1],0.48
CGGCACTA (double strand) [8-mer CGGCACTA],binding signal (PBM E-score (-0.5 to 0.5)),[1],0.481
CGGCATTA (double strand) [8-mer CGGCATTA],binding signal (PBM E-score (-0.5 to 0.5)),[1],0.489
CGGCCTTA (double strand) [8-mer CGGCCTTA],binding signal (PBM E-score (-0.5 to 0.5)),[1],0.481
CGGCGTTA (double strand) [8-mer CGGCGTTA],binding signal (PBM E-score (-0.5 to 0.5)),[1],0.49
CGGGGTTA (double strand) [8-mer CGGGGTTA],binding signal (PBM E-score (-0.5 to 0.5)),[1],0.495
CGGTCTTA (double strand) [8-mer CGGTCTTA],binding signal (PBM E-score (-0.5 to 0.5)),[1],0.48
CGGTGATA (double strand) [8-mer CGGTGATA],binding signal (PBM E-score (-0.5 to 0.5)),[1],0.488
CGGTGCTA (double strand) [8-mer CGGTGCTA],binding signal (PBM E-score (-0.5 to 0.5)),[1],0.488
CGGTGTTA (double strand) [8-mer CGGTGTTA],binding signal (PBM E-score (-0.5 to 0.5)),[1],0.496
CTACGTCA (double strand) [8-mer CTACGTCA],binding signal (PBM E-score (-0.5 to 0.5)),[3],0.493
GAATGTCC (double strand) [8-mer GAATGTCC],binding signal (PBM E-score (-0.5 to 0.5)),[5],0.494
GCCGCGGA (double strand) [8-mer GCCGCGGA],binding signal (PBM E-score (-0.5 to 0.5)),[2],0.495
GGACAAAA (double strand) [8-mer GGACAAAA],binding signal (PBM E-score (-0.5 to 0.5)),[5],0.494
GGACAAAC (double strand) [8-mer GGACAAAC],binding signal (PBM E-score (-0.5 to 0.5)),[5],0.491
GGGACAAA (double strand) [8-mer GGGACAAA],binding signal (PBM E-score (-0.5 to 0.5)),[5],0.496
GTGACGTA (double strand) [8-mer GTGACGTA],binding signal (PBM E-score (-0.5 to 0.5)),[3],0.494
TGACGTCA (double strand) [8-mer TGACGTCA],binding signal (PBM E-score (-0.5 to 0.5)),[3],0.499
TGGACAAA (double strand) [8-mer TGGACAAA],binding signal (PBM E-score (-0.5 to 0.5)),[5],0.493
